# Experimental data taken from the Immune Epitope Database (IEDB).
# What was measured:
# HLA-A*02:02 = assay: IEDB peptide-MHC binding, purified MHC/competitive/radioactivity; filed as Kd, often an IC50 or EC50 that approximates it; ≥ and ≤ were set here for values at or beyond the usual limits of such assays
# HLA-A*02:03 = assay: as above
# HLA-A*02:06 = assay: as above
# HLA-A*68:02 = assay: as above
# HLA-B*08:01 = assay: as above
# HLA-A*01:01 = assay: as above
# HLA-A*23:01 = assay: as above
# HLA-A*24:02 = assay: as above
# HLA-A*26:01 = assay: as above
# HLA-A*29:02 = assay: as above
# HLA-A*30:02 = assay: as above
# HLA-A*02:01 [1] = assay: IEDB peptide-MHC binding, purified MHC/competitive/fluorescence; ≥ and ≤ were set here for values at or beyond the usual limits of such assays
# HLA-B*51:01 = assay: IEDB peptide-MHC binding, purified MHC/competitive/radioactivity; filed as Kd, often an IC50 or EC50 that approximates it; ≥ and ≤ were set here for values at or beyond the usual limits of such assays
# HLA-B*53:01 = assay: as above; settings: source organism: Dengue virus 1 Brazil/97-11/1997
# HLA-B*40:01 = assay: as above; settings: source organism: Dengue virus 2 Jamaica/1409/1983
# HLA-A*02:01 [2] = assay: IEDB peptide-MHC binding, purified MHC/competitive/fluorescence; filed as Kd, often an IC50 or EC50 that approximates it; ≥ and ≤ were set here for values at or beyond the usual limits of such assays
# HLA-B*57:01 = assay: IEDB peptide-MHC binding, purified MHC/direct/fluorescence; filed as Kd, often an IC50 or EC50 that approximates it; ≥ and ≤ were set here for values at or beyond the usual limits of such assays; settings: source organism: Salmonella enterica
# HLA-B*58:01 = assay: as above; settings: source organism: Salmonella enterica
# [3] = source organism: Vaccinia virus WR
# [4] = source organism: SARS coronavirus Tor2
# [5] = source organism: Dengue virus 4 Philippines/H241/1956
# [6] = source organism: Hepatitis C virus (isolate 1)
# [7] = source organism: Dengue virus 1 Brazil/97-11/1997
# [8] = source organism: Trypanosoma cruzi
# [9] = source organism: Dengue virus 2 Jamaica/1409/1983
# [10] = source organism: Hepacivirus hominis
# [11] = source organism: Dengue virus 3 Singapore/8120/1995
# [12] = source organism: Dengue virus 3 Martinique/1243/1999
# [13] = source organism: Mammarenavirus whitewaterense
# [14] = source organism: Mammarenavirus mopeiaense
# [15] = source organism: Lymphocytic choriomeningitis virus (strain Armstrong)
# [16] = source organism: Mammarenavirus machupoense
# [17] = source organism: Mammarenavirus caliense
sequence,measurement,setting,value
ALEAKIAQL,Kd,HLA-A*02:02; source organism: Homo sapiens,14.8 nM
same,Kd,HLA-A*02:03; source organism: Homo sapiens,46.7 nM
same,Kd,HLA-A*02:06; source organism: Homo sapiens,1100 nM
same,Kd,HLA-A*68:02; source organism: Homo sapiens,7300 nM
ALRPSTSRSL,Kd,HLA-A*68:02; source organism: Homo sapiens,≥ 60000 nM
ALRSRIREL,Kd,HLA-B*08:01; [3],0.455 nM
APALQEAYY,Kd,HLA-A*01:01; [4],≥ 109000 nM
same,Kd,HLA-A*23:01; [4],≥ 77800 nM
same,Kd,HLA-A*24:02; [4],≥ 77600 nM
same,Kd,HLA-A*26:01; [4],≥ 65600 nM
same,Kd,HLA-A*29:02; [4],1990 nM
same,Kd,HLA-A*30:02; [4],365 nM
ASMAICSAV,Kd,HLA-A*68:02; [5],63.7 nM
CINGVCWTV,IC50,HLA-A*02:01 [1]; source organism: Hepatitis C virus genotype 1,≥ 50000 nM
same,Kd,HLA-A*02:02; [6],3350 nM
same,Kd,HLA-A*02:03; [6],6440 nM
same,Kd,HLA-A*02:06; [6],4370 nM
same,Kd,HLA-A*68:02; [6],3780 nM
DKRMKSLAM,Kd,HLA-B*08:01; [3],9.85 nM
DRRSFFKCF,Kd,HLA-B*08:01; source organism: Vaccinia virus Copenhagen,75.7 nM
ELREIFRRL,Kd,HLA-B*08:01; [3],26.5 nM
FMYTKHSML,Kd,HLA-A*02:02; [3],2.4 nM
same,Kd,HLA-A*02:03; [3],0.394 nM
same,Kd,HLA-A*02:06; [3],222 nM
same,Kd,HLA-B*08:01; [3],0.2 nM
FPGKTVWFV,Kd,HLA-B*51:01; [7],6360 nM
same,Kd,HLA-B*53:01,86.1 nM
FVNHRFTLV,Kd,HLA-A*02:02; [8],81.8 nM
same,Kd,HLA-A*02:03; [8],1.38 nM
same,Kd,HLA-A*02:06; [8],6.57 nM
same,Kd,HLA-A*68:02; [8],89.3 nM
IENSSVNVSL,Kd,HLA-B*08:01; [9],764 nM
same,Kd,HLA-B*40:01,1.59 nM
ILDSFDPLV,Kd,HLA-A*02:01 [2]; [10],0.6 nM
ILEDQNCKL,Kd,HLA-A*68:02; source organism: Homo sapiens,≥ 60000 nM
KLKKLEEEQI,Kd,HLA-A*02:06; source organism: Homo sapiens,≥ 59100 nM
same,Kd,HLA-A*68:02; source organism: Homo sapiens,≥ 60000 nM
LCLIPTVMAF,Kd,HLA-A*23:01; source organism: Dengue virus 4 Dominica/814669/1981,454 nM
LDESFLGRY,Kd,HLA-A*01:01; [4],2610 nM
same,Kd,HLA-A*23:01; [4],≥ 77800 nM
same,Kd,HLA-A*24:02; [4],≥ 77600 nM
same,Kd,HLA-A*26:01; [4],12700 nM
same,Kd,HLA-A*29:02; [4],1540 nM
same,Kd,HLA-A*30:02; [4],163 nM
LFLAFVVFL,Kd,HLA-A*01:01; [4],812 nM
same,Kd,HLA-A*23:01; [4],1880 nM
same,Kd,HLA-A*24:02; [4],≥ 29900 nM
same,Kd,HLA-A*26:01; [4],571 nM
same,Kd,HLA-A*29:02; [4],7980 nM
same,Kd,HLA-A*30:02; [4],≥ 34300 nM
LLCPAGHAV,IC50,HLA-A*02:01 [1]; [10],35400 nM
same,Kd,HLA-A*02:01 [2]; source organism: Hepatitis C virus subtype 1b,12.4 nM
LLVTHYAII,Kd,HLA-A*02:03; [11],39.2 nM
same,Kd,HLA-B*08:01; [11],667 nM
LMKMKKKTWL,Kd,HLA-B*08:01; [5],24.1 nM
LRTTTVSGKL,Kd,HLA-B*08:01; [12],9540 nM
LTMKNKAWMV,Kd,HLA-A*68:02; [12],16.7 nM
LYLTQDLFL,Kd,HLA-A*01:01; [4],≥ 20400 nM
same,Kd,HLA-A*23:01; [4],≥ 81700 nM
same,Kd,HLA-A*24:02; [4],≥ 70300 nM
same,Kd,HLA-A*26:01; [4],≥ 34000 nM
same,Kd,HLA-A*29:02; [4],≥ 71900 nM
same,Kd,HLA-A*30:02; [4],≥ 81100 nM
MAISGDDCVV,Kd,HLA-B*51:01; [9],4860 nM
MASVEPHWI,Kd,HLA-B*51:01; [7],1790 nM
same,Kd,HLA-B*53:01,1400 nM
MAYMIGQTGI,Kd,HLA-B*51:01; [5],57.1 nM
MFISLFMIL,Kd,HLA-B*08:01; [3],223 nM
MWLGARYLEF,Kd,HLA-A*23:01; [12],3.54 nM
same,Kd,HLA-A*24:02; [12],97.7 nM
NLEKKITNV,Kd,HLA-A*02:01 [2]; source organism: Vaccinia virus WR 65-16,216 nM
NVMKRINCF,Kd,HLA-B*08:01; [3],19.8 nM
NYCEGTTVVI,Kd,HLA-A*23:01; [12],101 nM
same,Kd,HLA-A*24:02; [12],43.4 nM
PYIASRSQI,Kd,HLA-A*23:01; [13],492 nM
same,Kd,HLA-A*24:02; [13],2810 nM
same,Kd,HLA-A*29:02; [13],≥ 78900 nM
PYIASRTSIV,Kd,HLA-A*01:01; [14],≥ 44500 nM
same,Kd,HLA-A*23:01; [14],1590 nM
same,Kd,HLA-A*24:02; [14],2500 nM
same,Kd,HLA-A*26:01; [14],≥ 69700 nM
same,Kd,HLA-A*29:02; [14],≥ 32600 nM
same,Kd,HLA-A*30:02; [14],≥ 37300 nM
QFIHFYREPV,Kd,HLA-A*01:01; [15],≥ 41300 nM
same,Kd,HLA-A*23:01; [15],≥ 69500 nM
same,Kd,HLA-A*24:02; [15],≥ 70300 nM
same,Kd,HLA-A*26:01; [15],≥ 69700 nM
same,Kd,HLA-A*29:02; [15],≥ 39400 nM
same,Kd,HLA-A*30:02; [15],5150 nM
QKQTQRSGVL,Kd,HLA-B*08:01; [12],5800 nM
QYVRSGKDHV,Kd,HLA-A*01:01; [15],≥ 70400 nM
same,Kd,HLA-A*23:01; [15],≥ 50200 nM
same,Kd,HLA-A*24:02; [15],≥ 70300 nM
same,Kd,HLA-A*26:01; [15],≥ 69700 nM
same,Kd,HLA-A*29:02; [15],≥ 71400 nM
same,Kd,HLA-A*30:02; [15],1440 nM
RFKTKGRYNL,Kd,HLA-A*23:01; [16],87.5 nM
same,Kd,HLA-A*24:02; [16],579 nM
same,Kd,HLA-A*29:02; [16],104 nM
RSRCRLHHL,Kd,HLA-B*57:01,3540 nM
same,Kd,HLA-B*58:01,598 nM
RTAGMIIMLI,Kd,HLA-A*68:02; source organism: Dengue virus 2 Peru/IQT2913/1996,61.6 nM
RTTWALCESI,Kd,HLA-A*68:02; [7],139 nM
SAKRITESI,Kd,HLA-B*08:01; [3],119 nM
SCKVKIVPL,Kd,HLA-B*08:01; [3],1430 nM
SLIPRLVDF,Kd,HLA-B*08:01; [3],12.7 nM
SRHQRLHDE,Kd,HLA-B*08:01; [3],453 nM
SVYTTMFGGV,Kd,HLA-A*02:03; [5],8.23 nM
same,Kd,HLA-A*02:06; [5],1.96 nM
same,Kd,HLA-A*68:02; [5],9.63 nM
SYREAACCHL,Kd,HLA-A*01:01; [4],≥ 25100 nM
same,Kd,HLA-A*23:01; [4],643 nM
same,Kd,HLA-A*24:02; [4],221 nM
same,Kd,HLA-A*26:01; [4],≥ 69700 nM
same,Kd,HLA-A*29:02; [4],≥ 28900 nM
same,Kd,HLA-A*30:02; [4],7040 nM
TATLILAGV,Kd,HLA-A*68:02; [12],1.07 nM
TSMSFSCIAI,Kd,HLA-A*68:02; [12],1.23 nM
TSSMRGVYY,Kd,HLA-A*01:01; [4],69.3 nM
same,Kd,HLA-A*23:01; [4],≥ 77800 nM
same,Kd,HLA-A*24:02; [4],≥ 77600 nM
same,Kd,HLA-A*26:01; [4],8300 nM
same,Kd,HLA-A*29:02; [4],263 nM
same,Kd,HLA-A*30:02; [4],124 nM
TVFFVLMMLV,Kd,HLA-A*68:02; [5],38.7 nM
TYASALWEI,Kd,HLA-A*01:01; [4],≥ 78100 nM
same,Kd,HLA-A*23:01; [4],8140 nM
same,Kd,HLA-A*24:02; [4],≥ 21500 nM
same,Kd,HLA-A*26:01; [4],≥ 77900 nM
same,Kd,HLA-A*29:02; [4],14200 nM
same,Kd,HLA-A*30:02; [4],≥ 81100 nM
VLPFDIKKL,Kd,HLA-A*02:01 [2]; [3],525 nM
VNREGKIVGL,Kd,HLA-B*08:01; [7],≥ 35600 nM
YQPDTGNYI,Kd,HLA-A*23:01; [17],5790 nM
same,Kd,HLA-A*24:02; [17],5260 nM
same,Kd,HLA-A*29:02; [17],≥ 78900 nM
